Laboratory results as given in PMC5044835, “Crystal Structure of the Human Astrovirus Capsid Protein” (Journal of Virology, 2016).

Biological target: the molecule itself
Test: not stated; data not shown; oligomeric state of recombinant VP70 expressed in insect cells or E. coli

B1: astrovirus VP70 expressed in insect cells (natural protein)
chain: MASKSDKQVTVEVNNNGRSRSKSRARSQSRGRGRSVKITVNSHNKGRRQNGRNKYQSNQRVRKIVNKQLRKQGVTGPKPAICQTATATLGTIGSNTTGATEIEACILLNPVLVKDATGSTQFGPVQALGAQYSMWKLKYLNVRLTSMVGASAVNGTVVRISLNPTSTPSSTSWSGLGARKHLDVTVGKNAVFKLKPSDLGGPRDGWWLTNTNDNASDTLGPSIEIHTLGQTMSSYQNTQFTGGLFLVELSSAWCFTGYAANPNLVNLVKSTDKSVNVTFEGSAGTPLIMNVPEHSHFARTAVEHSSLSTSLSRAGGESSSDTVWQVLNTAVSAAELVTPPPFNWLVKGGWWFVKLIAGRARTGARRFYVYLSYQDALSNKPALCTGGVPASARQSNPVRTTLQFTQMNQPSLGHGATPMTFGRSIPEPGEQFRVLLTVGPPMAPNTANSQNWVNKTIVPPENQYTVKIGIDLEHYTTMQGFTPVESVSWYTADFQPSDEPSPIPGLYARVNNTKKADVYGVQQFKSSHTNNRHQITSVFLVRVTTSFQVINYTSYFIRGAESGSNVSNLKIRDQTYHTPLQFTQGKWYLLTSTVMHDGPTSSGWVWMNQELTNNIAYRVDPGMMYLITPPPAASQLYFELHTVLPQARSEEPETYVD
notes: construct, tags and purification are not described; source: insect cells
stoichiometry N: 2

B2: astrovirus VP70 expressed in E. coli (natural protein)
chain: MASKSDKQVTVEVNNNGRSRSKSRARSQSRGRGRSVKITVNSHNKGRRQNGRNKYQSNQRVRKIVNKQLRKQGVTGPKPAICQTATATLGTIGSNTTGATEIEACILLNPVLVKDATGSTQFGPVQALGAQYSMWKLKYLNVRLTSMVGASAVNGTVVRISLNPTSTPSSTSWSGLGARKHLDVTVGKNAVFKLKPSDLGGPRDGWWLTNTNDNASDTLGPSIEIHTLGQTMSSYQNTQFTGGLFLVELSSAWCFTGYAANPNLVNLVKSTDKSVNVTFEGSAGTPLIMNVPEHSHFARTAVEHSSLSTSLSRAGGESSSDTVWQVLNTAVSAAELVTPPPFNWLVKGGWWFVKLIAGRARTGARRFYVYLSYQDALSNKPALCTGGVPASARQSNPVRTTLQFTQMNQPSLGHGATPMTFGRSIPEPGEQFRVLLTVGPPMAPNTANSQNWVNKTIVPPENQYTVKIGIDLEHYTTMQGFTPVESVSWYTADFQPSDEPSPIPGLYARVNNTKKADVYGVQQFKSSHTNNRHQITSVFLVRVTTSFQVINYTSYFIRGAESGSNVSNLKIRDQTYHTPLQFTQGKWYLLTSTVMHDGPTSSGWVWMNQELTNNIAYRVDPGMMYLITPPPAASQLYFELHTVLPQARSEEPETYVD
notes: construct, tags and purification are not described; source: E. coli
stoichiometry N: 2
